Measured values reported in patent US20210371522A1 (CELGENE, published 2021).

Assays:
[1] = target: T1, human CD47, endogenous cell surface form (human, UniProt Q08722 19-323); experiment: as described in Examples 2 and 3
T1 construct: Endogenous CD47 on human tumor cell lines; also called cell surface CD47; CD47 on Raji, CCRF-CEM and Daudi cells
Source text: Exemplary murine CD47 antibodies disclosed here are shown in FIG. 2, as disclosed in U.S. patent application Ser. No. 13/960,136 (Publication No. US20140140989).

[2] = target: T1, human CD47, endogenous cell surface form; experiment: cell-based or functional assay

binding result [1] | phagocytosis of tumor cells (CFSE-labeled CCRF-CEM) by monocyte derived macrophages [2] [pM] | Binder
binds |  | murine 9E4 antibody (antibody, mouse IgG1, V domains shown) VH: EVQLRQSGPELVKPGASVKISCKASGYSFTDYYMYWVKQSRVRSLAWIGRINPYTGATGYDQNFKDKASLIVDKSSSTAYMELRSLTSEDSAVYYCARGRNRYDGWFAYWGQGTLVTV VL: EIQMTQTTSSLSASLGDRVTISCRASQDISNYLNWYQQKPDGTVKLLIYYTSRLHSGVPSRFSGSGSGTDYSLTISNLDQEDIATYFCQQGNALPPTFGGGTNLEIK
 | 66.7 | CD47 antibody B6H12 (antibody, from another filing, V domains shown) VH: EVQLVESGGDLVKPGGSLKLSCAASGFTFSGYGMSWVRQTPDKRLEWVATITSGGTYTYYPDSVKGRFTISRDNAKNTLYLQIDSLKSEDTAIYFCARSLAGNAMDYWGQGTSVTVSS VL: DIVMTQSPATLSVTPGDRVSLSCRASQTISDYLHWYQQKSHESPRLLIKFASQSISGIPSRFSGSGSGSDFTLSINSVEPEDVGVYYCQNGHGFPRTFGGGTKLEIK
